This note sets out measurements from PMC5764988.

The test concerns the target MagD, the Type II alpha-2-macroglobulin from Pseudomonas aeruginosa (Pseudomonas aeruginosa) (UniProt Q9HVT2). Kind of test: AUC; sedimentation velocity, 35,000 rpm, 20 °C, absorbance at 280 nm; 0.25, 0.5 and 1 mg/mL; 25 mM HEPES pH 7.5, 100 mM NaCl; c(s) analysis with Sedfit; co-purified complexes after analytical gel filtration. (In gel filtration, larger molecules generally elute earlier.)
Usually stoichiometry N stands for a count of units in the complex or per binding partner. With MagB (natural protein), the stoichiometry N turned out to be 1. The same measure for MagF (natural protein): 1; for MagA (natural protein): 1.
